Test results: doi:10.1101/2025.07.27.667015v3 (biorxiv, 2025)

Legend:
yMGL [1] = target: yMGL (Yarrowia lipolytica, UniProt Q6CB42, S333A); assay: OpenSPR, protein immobilised on NTA chip; type: binding
yMGL [2] = target: yMGL (Yarrowia lipolytica, UniProt Q6CB42); assay: OpenSPR, protein immobilised on NTA chip; type: binding
CSCC[C@H](N)C(=O)O = assay: purified protein; settings: saturating PLP (5 μM), 50 mM Tris-HCl pH 8.0, 20 °C

| Molecule | Kd (yMGL [1]) [µM] | Kd (yMGL [2]) [µM] | Km (CSCC[C@H](N)C(=O)O) [mM] | kcat (CSCC[C@H](N)C(=O)O) [s⁻¹] |
| --- | --- | --- | --- | --- |
| Cc1ncc(COP(=O)(O)O)c(C=O)c1O [PLP] | 942 | 33.1 |  |  |
| yMGL-ΔCTD (Yarrowia lipolytica CLIB122; DEL253-380) |  |  | 0.75 ± 0.01 | 0.04 ± 0.00 |
| yMGL (Yarrowia lipolytica CLIB122) |  |  | 1.50 ± 0.01 | 0.06 ± 0.00 |
